The supplement of paper PMC10567573

B1: DYRK1B (parent)
chain: YQGPGTRRLQEVLGVQTGGPGGRR
B2: LMNB1 (parent)
chain: LYKEELEQTYHAKLENARLSSEMN

Variants of: B1
Test: protein stability index of a GFP-peptide fusion (GPS, HEK-293T) (PSI 1-6); higher = more stable
Settings: c terminus: a fixed tail appended
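Also: lentivirally expressed fusions sorted by FACS into six bins by GFP to DsRed ratio, PSI derived from sequencing read proportions per bin multiplied by bin number.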

Variant	protein stability index
G18E	3.52
G14F	2.66
G14S	3.14
G22N	3.44
G22T	3.35
G22C	2.87
G22P	3.48
P4M	1.91
P4K	2.63
P4I	2.58
P4C	2.29
P4D	2.81
P4S	2.32
R8M	2.35
R8W	3.27
R8Y	1.91
R8T	2.97
R8S	3.73
G5Q	4.42
G5I	2.76
G5V	3.4
G5P	2.8
G5T	3.22
V12D	4.34

Variant	protein stability index
V12P	3.69
V12W	2.92
V12R	2.91
V12Y	3.05
V12M	2.59
V12T	3.75
E11W	1.55
E11Y	2.97
E11M	2.81
E11S	3
E11N	2.98
E11L	2.28
E11V	2.56
Q16Y	3.19
Y1L	4.32
Y1S	4.96
Y1Q	4.04
Y1K	3.84
R23N	3.29
R23V	2.88
R23L	3.12
R23H	3.1
R23S	2.59
R23F	2.37

Variant	protein stability index
Q2G	3.39
R7S	3.45
R7M	3.21
R7A	3.68
T17P	3.5
T17I	2.75
T17N	3.83
T17Y	3.11
T17H	3.69
L9Y	3.06
L9C	3.21
L9D	3.94
L9G	4.47
L9P	4
G3C	3.58
G3A	3.31
G3L	3.23
L13N	3.85
L13P	3.44
L13H	3.94
L13I	3.47
L13S	4.07
G21P	3.17
G21T	2.98

Variant	protein stability index
G21I	3.15
G21D	3.88
G21V	2.2
G19Q	3.05
G19T	3.44
P20Y	2.77
P20I	2.84
P20Q	3.16
P20G	3.15
V15S	3.59
V15R	3.34
V15A	3.69
V15E	3.44
R24C	3.18
R24I	3.75
R24T	3.02
R24S	3.45
R24W	2.73
Q10R	2.91
Q10I	2.66
Q10P	4.21
Q10S	3.57
Q10L	2.28
Q10K	3.3

Variants of: B2
Test: as above
Settings: c terminus: a fixed tail appended

Variant	protein stability index
N24C	2.33
N24M	2.6
N24G	3.47
N24T	2.46
N24D	3.25
N24K	2.33
N24W	1.79
N24E	3.25
N24I	2.48
N24Y	2.27
N24F	1.88
N24H	3.28
N24S	2.64
N24V	2.26
N24L	2.51
N24A	2.43
N24Q	3.04
N24P	2.17
N24R	3.11
L14T	4.34
L14Q	4.56
L14K	5.64
L14E	4.64
L14D	4.74

Variant	protein stability index
L14M	3.09
L14C	4.28
L14S	4.66
L14W	3.11
L14N	4.54
L14V	3.49
L14Y	3.51
L14I	3.46
L14G	4.36
L14H	4.59
L14P	5
L14R	4.78
L14A	4.49
L14F	2.58
R18V	2.1
R18E	3.72
R18A	3.26
R18N	3.83
R18F	2.17
R18S	2.92
R18C	2.6
R18W	1.08
R18P	3.62
R18T	2.73

Variant	protein stability index
R18K	3.31
R18L	2.81
R18Y	2.24
R18H	3.1
R18D	3.7
R18G	3.35
R18M	2.76
R18I	2.27
R18Q	3.14
L19D	4.25
L19R	3.79
L19N	3.76
L19K	3.35
L19G	3.88
L19I	2.39
L19M	3.15
L19Y	2.36
L19S	3.08
L19C	3.36
L19E	4.75
L19P	2.74
L19V	2.88
L19H	3.31
